Consider 2 molecules from patent US20130243753A1 (Genentech, published 2013).

For assay [1], the target named is human Axl-Fc (human) (UniProt P30530). In words: competition ELISA; human Axl-Fc captured on anti-human IgG Fc plate, blocked ligand Gas6 detected with biotinylated anti-Gas6 and streptavidin-HRP. Background: An ELISA detects its analyte on a solid surface through an enzyme-linked reagent.
Assay [2] concerns the target human Axl ECD-His protein (human) (UniProt P30530). Description: SPR (BIAcore-3000): IgG captured by anti-human IgG, human Axl ECD-His injected.
In assay [3] the target is T1, human Tyro3-Fc (human, UniProt Q06418 41-428).
T1 construct: not shown: Fc part not described
T1 sequence (looked up): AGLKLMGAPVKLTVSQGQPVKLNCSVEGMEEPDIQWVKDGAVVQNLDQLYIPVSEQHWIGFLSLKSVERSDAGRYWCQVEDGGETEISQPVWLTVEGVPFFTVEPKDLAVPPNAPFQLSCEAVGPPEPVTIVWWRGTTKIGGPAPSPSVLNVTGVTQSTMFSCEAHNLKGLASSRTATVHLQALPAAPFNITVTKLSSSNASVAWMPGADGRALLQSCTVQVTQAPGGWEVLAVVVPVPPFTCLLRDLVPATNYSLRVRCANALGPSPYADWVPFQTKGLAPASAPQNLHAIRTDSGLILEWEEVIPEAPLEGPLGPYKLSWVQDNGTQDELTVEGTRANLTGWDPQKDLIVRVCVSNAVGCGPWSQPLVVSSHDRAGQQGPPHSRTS
Description: ELISA; receptor-Fc captured on anti-human IgG Fc coated plate. The procedure:
(§1) Plates were coated with anti-human IgG Fc, and then incubated with human Axl, Mer, Tyro3 Fcs, mouse or cynomolgus AxlFcs. […] FIG. 7D: ELISA. Plates were coated with anti-human IgG Fc and incubated with human Axl-Fc. […] FIG. 7E: FACS. […] A549 cells were incubated with 1 μg/mlYW327.6S2 for indicated time, and cell surface Axl expression was determined by FACS (upper panel), and total protein expression by Western Blotting analysis (lower panel). […] Phosphorylated Axl was measured by ELISA (upper panel), and phosphorylated Akt by Western Blotting analysis (lower panel). […] Cell viability was measured by CellTiter Glo assay.
(§2) ELISA assays were performed as follows: goat anti-human IgG Fc coated plates were blocking with 0.5% BSA, PBS, 0.05% Tween 20 (PBST). For cross reaction assay, coated plates were incubated with human Axl.Fc, mouse Axl.Fc or human Mer.Fc, Tyro-3.Fc for 1 hr at room temperature, washed four times in PBST, incubated with anti-Axl mAbs and HRP-conjugated anti-mouse Ig. […] Plates were washed four times in PBST, incubated with biotinylated anti-mGas6 and strepavidin-HRP. Secreted Ang-2 and DKK3 was measured using R&D ELISA kit, according to the manufacturer's instruction.

For assay [4], the target named is T2, human Mer-Fc (human, UniProt Q12866 26-499).
T2 construct: not shown: Fc part not described
T2 sequence (looked up): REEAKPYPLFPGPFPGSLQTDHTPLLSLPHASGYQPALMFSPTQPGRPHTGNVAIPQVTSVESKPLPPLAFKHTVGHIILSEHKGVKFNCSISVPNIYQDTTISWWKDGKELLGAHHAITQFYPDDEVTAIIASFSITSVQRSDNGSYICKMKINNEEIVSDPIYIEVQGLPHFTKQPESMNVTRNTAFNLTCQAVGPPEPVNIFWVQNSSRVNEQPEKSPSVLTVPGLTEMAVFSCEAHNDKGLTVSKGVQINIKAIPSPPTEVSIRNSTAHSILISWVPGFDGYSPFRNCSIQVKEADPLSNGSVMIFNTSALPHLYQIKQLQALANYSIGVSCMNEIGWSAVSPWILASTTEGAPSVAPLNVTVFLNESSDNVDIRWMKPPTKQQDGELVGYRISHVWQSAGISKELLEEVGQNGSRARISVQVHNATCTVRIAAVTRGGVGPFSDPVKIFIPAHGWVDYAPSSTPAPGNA
The description is as above. The procedure: as §1, §2

Assay [5] has as its target human Axl on the cell surface (HUVEC, A549, H1299, Baf3Axl cells) (human, UniProt P30530 26-894). In words: FACS on HUVEC; cells treated with antibody, then Gas6; blocked ligand Gas6 detected with biotinylated anti-Gas6 and streptavidin-PE.
Assay [6] deals with T3, murine Axl ECD-Fc fusion protein (murine; human, UniProt Q00993 19-445).
T3 construct: extracellular domain; also called murine Axl ECD human IgG fusion protein; mouse Axl.Fc; not shown: human IgG Fc
T3 sequence (Q00993 19-445): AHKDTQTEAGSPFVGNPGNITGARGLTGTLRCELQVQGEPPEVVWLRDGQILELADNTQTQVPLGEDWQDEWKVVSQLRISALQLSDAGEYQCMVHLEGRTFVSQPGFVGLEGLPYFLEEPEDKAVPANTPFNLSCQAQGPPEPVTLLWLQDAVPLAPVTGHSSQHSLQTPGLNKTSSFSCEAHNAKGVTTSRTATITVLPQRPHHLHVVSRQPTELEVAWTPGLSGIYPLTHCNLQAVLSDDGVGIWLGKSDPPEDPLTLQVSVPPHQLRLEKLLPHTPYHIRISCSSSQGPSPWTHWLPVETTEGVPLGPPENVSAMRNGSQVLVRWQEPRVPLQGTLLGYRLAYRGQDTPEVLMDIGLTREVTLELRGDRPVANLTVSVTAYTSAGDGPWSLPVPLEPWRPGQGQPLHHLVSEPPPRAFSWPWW
In words: SPR (BIAcore-3000): murine Axl ECD-Fc captured by anti-human IgG, anti-Axl Fab injected. The procedure: Association rates (kₒₙ) and dissociation rates (koff) were calculated using a simple one-to-one Langmuir binding model (BIAcore Evaluation Software version 3.2).
In general terms: In SPR one partner is held on a chip, and binding of the other changes the refractive index at the surface.

Sequence of human Axl-Fc (human) (P30530 other isoform, or with tags, fused parts or gaps, form in doubt): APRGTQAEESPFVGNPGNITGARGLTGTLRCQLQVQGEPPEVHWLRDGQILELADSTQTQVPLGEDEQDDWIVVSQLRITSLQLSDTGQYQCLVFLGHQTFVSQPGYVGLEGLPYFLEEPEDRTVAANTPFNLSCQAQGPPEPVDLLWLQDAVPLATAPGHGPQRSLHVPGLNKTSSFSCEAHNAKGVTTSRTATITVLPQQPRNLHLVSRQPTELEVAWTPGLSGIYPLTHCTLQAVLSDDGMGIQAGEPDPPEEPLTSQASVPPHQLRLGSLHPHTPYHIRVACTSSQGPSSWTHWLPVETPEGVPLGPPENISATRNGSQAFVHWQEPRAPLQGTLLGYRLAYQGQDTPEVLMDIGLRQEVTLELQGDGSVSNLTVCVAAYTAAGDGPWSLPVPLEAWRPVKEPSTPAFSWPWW
Sequence of human Axl on the cell surface (HUVEC, A549, H1299, Baf3Axl cells) (P30530 other isoform, or with tags, fused parts or gaps limits assumed): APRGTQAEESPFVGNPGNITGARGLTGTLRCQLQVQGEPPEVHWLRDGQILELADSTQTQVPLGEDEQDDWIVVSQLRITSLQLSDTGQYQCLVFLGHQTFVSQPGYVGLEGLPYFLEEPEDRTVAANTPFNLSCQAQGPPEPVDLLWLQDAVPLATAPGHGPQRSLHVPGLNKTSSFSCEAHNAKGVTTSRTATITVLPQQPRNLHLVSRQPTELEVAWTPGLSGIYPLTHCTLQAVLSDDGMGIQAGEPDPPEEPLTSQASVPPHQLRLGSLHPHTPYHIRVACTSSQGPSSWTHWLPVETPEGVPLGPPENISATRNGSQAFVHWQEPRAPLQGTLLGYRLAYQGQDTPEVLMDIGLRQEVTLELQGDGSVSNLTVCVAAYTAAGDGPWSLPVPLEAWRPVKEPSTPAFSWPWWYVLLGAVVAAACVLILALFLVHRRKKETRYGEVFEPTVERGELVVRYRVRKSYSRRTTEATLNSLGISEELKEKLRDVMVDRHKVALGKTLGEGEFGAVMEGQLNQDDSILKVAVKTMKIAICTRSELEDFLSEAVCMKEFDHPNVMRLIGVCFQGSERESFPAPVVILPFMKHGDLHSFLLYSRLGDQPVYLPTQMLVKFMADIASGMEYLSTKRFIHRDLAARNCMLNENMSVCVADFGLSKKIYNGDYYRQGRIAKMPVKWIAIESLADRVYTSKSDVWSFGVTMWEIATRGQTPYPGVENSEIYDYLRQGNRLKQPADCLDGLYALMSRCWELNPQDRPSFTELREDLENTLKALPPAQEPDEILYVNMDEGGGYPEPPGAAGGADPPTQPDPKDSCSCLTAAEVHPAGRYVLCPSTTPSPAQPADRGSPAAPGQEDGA

B1: Affinity matured Axl mAb YW327.6S2 (full-length human IgG) (antibody, V domains shown)
VH: EVQLVESGGGLVQPGGSLRLSCAASGFSLSGSWIHWVRQAPGKGLEWVGWINPYRGYAYYADSVKGRFTISADTSKNTAYLQMNSLRAEDTAVYYCAREYSGWGGSSVGYAMDYWGQGTLVTVSS
VL: DIQMTQSPSSLSASVGDRVTITCRASQDVSTAVAWYQQKPGKAPKLLIYSASFLYSGVPSRFSGSGSGTDFTLTISSLQPEDFATYYCQQSYTTPPTFGQGTKVEIK
notes: No sentence ties these to this name, so they are not used; also called YW327.652
As usually defined, the Kd is the constant that tells how readily two partners part at equilibrium. Regarding B1, the IC50 (read off the curve) in assay [1] was 0.02 µg/mL; in assay [5] it was ~0.1 µg/mL. Besides, in assay [2], the dissociation constant Kd amounted to 1 nM. Also, the binding result in assay [3] and in assay [4] was “no binding (tested: concentration not shown)” throughout.

B2: YW327.6S2 Fab fragment (Fab, V domains shown)
VH: B1 VH
VL: B1 VL
notes: The result sentence names only the mAb; also called anti-Axl Fab fragment; YW327.652
In assay [6], B2 came in with a Kd of 0.545 nM. This lies in the sub-nanomolar range.
